Holding throughout (test): cell-based or functional assay
Test [1] addresses DO11.10 TCR (endogenous T cell receptor of the DO11.10 T cell hybridoma).
Test [2] has the same target. The source holds these as a separate data set.
Test [3] concerns the target DO11.10 scTCR/murine CD3ζ fusion molecule (membrane-bound, on transfected cells) (mouse) (UniProt P24161).
The target in test [4] is 2B4 TCR (endogenous T cell receptor of the 2B4 T cell hybridoma) (mouse).
The target of test [5] is DO11.10 scTCR/murine CD3ζ fusion molecule (membrane-bound, on transfected cells) (mouse) (UniProt P24161). The source holds these as a separate data set.
The target of test [6] is DO11.10 TCR (endogenous T cell receptor of the DO11.10 T cell hybridoma). The source holds these as a separate data set.

Where two headings read alike, the source gives them in different places.

Sequence of UniProt P24161 (P24161 whole entry, the tested form may be a part): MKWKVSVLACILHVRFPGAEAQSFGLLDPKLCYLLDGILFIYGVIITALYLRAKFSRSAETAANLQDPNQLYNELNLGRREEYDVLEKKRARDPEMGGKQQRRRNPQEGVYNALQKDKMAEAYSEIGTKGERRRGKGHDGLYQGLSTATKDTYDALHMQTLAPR

In test [1], “scIA^d/OVA-IgG multimer (scIA^d/OVA-Cκ fusion with scIA^d/OVA-IgG2b heavy chain fusion) (peptide-MHC)” yielded an IL-2 ELISA value; DO11.10 T cells; 12.5 ng complex/well of 0.184 A405, an IL-2 ELISA value; DO11.10 T cells; 25 ng complex/well of 0.758 A405, an IL-2 ELISA value; DO11.10 T cells; 50 ng complex/well of 2.11 A405 and an IL-2 ELISA value; DO11.10 T cells; 100 ng complex/well of 2.9 A405.
In test [2], “scIA^d/OVA-IgM fusion (scIA^d/OVA fused to CH2-CH3-CH4 of human IgM heavy chain), multi-valent (from UniProt P01871 106-453) (peptide-MHC)” showed an IL-2 ELISA value; DO11.10 T cells; 1 ng complex/well of 0.268 A405, an IL-2 ELISA value; DO11.10 T cells; 3 ng complex/well of 0.529 A405, an IL-2 ELISA value; DO11.10 T cells; 7 ng complex/well of 0.838 A405 and an IL-2 ELISA value; DO11.10 T cells; 15 ng complex/well of 1.18 A405. In test [2], this molecule registered an IL-2 ELISA value; DO11.10 T cells; 31 ng complex/well of 1.42 A405, an IL-2 ELISA value; DO11.10 T cells; 62 ng complex/well of 1.33 A405, an IL-2 ELISA value; DO11.10 T cells; 125 ng complex/well of 1.61 A405 and an IL-2 ELISA value; DO11.10 T cells; 250 ng complex/well of 1.48 A405. In test [3], this molecule had an IL-2 ELISA value; BWDZ:CD4+ transfectants; 40 ng complex/well of 0.305 A405, an IL-2 ELISA value; BWDZ:CD4+ transfectants; 200 ng complex/well of 0.34 A405, an IL-2 ELISA value; BWDZ:CD4+ transfectants; 1000 ng complex/well of 1.28 A405 and an IL-2 ELISA value; DO11.10 scTCR 2B4 transfectants; 1 ng complex/well of 0.214 A405. In test [3], this molecule returned an IL-2 ELISA value; DO11.10 scTCR 2B4 transfectants; 3 ng complex/well of 0.234 A405, an IL-2 ELISA value; DO11.10 scTCR 2B4 transfectants; 7 ng complex/well of 0.264 A405, an IL-2 ELISA value; DO11.10 scTCR 2B4 transfectants; 15 ng complex/well of 0.273 A405 and an IL-2 ELISA value; DO11.10 scTCR 2B4 transfectants; 31 ng complex/well of 1.32 A405. In test [3], this molecule came in with an IL-2 ELISA value; DO11.10 scTCR 2B4 transfectants; 62 ng complex/well of 1.82 A405, an IL-2 ELISA value; DO11.10 scTCR 2B4 transfectants; 125 ng complex/well of 2.33 A405 and an IL-2 ELISA value; DO11.10 scTCR 2B4 transfectants; 250 ng complex/well of 2.27 A405. In test [1], this molecule yielded an IL-2 ELISA value; DO11.10 T cells; 0.3 ng complex/well of 0.192 A405, an IL-2 ELISA value; DO11.10 T cells; 1 ng complex/well of 0.195 A405, an IL-2 ELISA value; DO11.10 T cells; 4 ng complex/well of 0.23 A405 and an IL-2 ELISA value; DO11.10 T cells; 11 ng complex/well of 0.601 A405. Besides, in test [1], the IL-2 ELISA value; DO11.10 T cells; 33 ng complex/well came out at 1.64 A405, the IL-2 ELISA value; DO11.10 T cells; 100 ng complex/well is 1.7 A405 and the IL-2 ELISA value; DO11.10 T cells; 300 ng complex/well amounted to 0.853 A405.
Regarding “single-chain IA^d linked to HSV-1 glycoprotein D peptide GD 246-261 (scIA^d/GD), monovalent (peptide-MHC)”, in test [2], the IL-2 ELISA value; DO11.10 T cells; 7 ng complex/well turned out to be 0.163 A405, the IL-2 ELISA value; DO11.10 T cells; 15 ng complex/well amounted to 0.152 A405, the IL-2 ELISA value; DO11.10 T cells; 31 ng complex/well worked out at 0.213 A405 and the IL-2 ELISA value; DO11.10 T cells; 62 ng complex/well turned out to be 0.164 A405. In addition, in test [2], the IL-2 ELISA value; DO11.10 T cells; 125 ng complex/well was 0.179 A405 and the IL-2 ELISA value; DO11.10 T cells; 250 ng complex/well was 0.18 A405. Moreover, in test [3], the IL-2 ELISA value; DO11.10 scTCR 2B4 transfectants; 7 ng complex/well came out at 0.163 A405, the IL-2 ELISA value; DO11.10 scTCR 2B4 transfectants; 15 ng complex/well is 0.152 A405, the IL-2 ELISA value; DO11.10 scTCR 2B4 transfectants; 31 ng complex/well was 0.213 A405 and the IL-2 ELISA value; DO11.10 scTCR 2B4 transfectants; 62 ng complex/well came out at 0.164 A405. For the same molecule, in test [3], the IL-2 ELISA value; DO11.10 scTCR 2B4 transfectants; 125 ng complex/well amounted to 0.179 A405 and the IL-2 ELISA value; DO11.10 scTCR 2B4 transfectants; 250 ng complex/well turned out to be 0.227 A405. The IL-2 ELISA value; DO11.10 T cells; 100 ng complex/well in test [1] stood at 0.152 A405.
As for “single-chain IA^d linked to OVA 323-339 (scIA^d/OVA), monovalent (peptide-MHC)”, in test [2], the IL-2 ELISA value; DO11.10 T cells; 7 ng complex/well was 0.236 A405, the IL-2 ELISA value; DO11.10 T cells; 15 ng complex/well is 0.397 A405, the IL-2 ELISA value; DO11.10 T cells; 31 ng complex/well is 0.646 A405 and the IL-2 ELISA value; DO11.10 T cells; 62 ng complex/well was 1.03 A405. Besides, in test [2], the IL-2 ELISA value; DO11.10 T cells; 125 ng complex/well was found to be 1.06 A405 and the IL-2 ELISA value; DO11.10 T cells; 250 ng complex/well was determined as 0.665 A405. In test [3], this molecule registered an IL-2 ELISA value; DO11.10 scTCR 2B4 transfectants; 7 ng complex/well of 0.236 A405, an IL-2 ELISA value; DO11.10 scTCR 2B4 transfectants; 15 ng complex/well of 0.397 A405, an IL-2 ELISA value; DO11.10 scTCR 2B4 transfectants; 31 ng complex/well of 0.646 A405 and an IL-2 ELISA value; DO11.10 scTCR 2B4 transfectants; 62 ng complex/well of 1.03 A405. In addition, in test [3], the IL-2 ELISA value; DO11.10 scTCR 2B4 transfectants; 125 ng complex/well turned out to be 1.06 A405 and the IL-2 ELISA value; DO11.10 scTCR 2B4 transfectants; 250 ng complex/well was found to be 1.06 A405. In test [1], this molecule had an IL-2 ELISA value; DO11.10 T cells; 12.5 ng complex/well of 0.176 A405, an IL-2 ELISA value; DO11.10 T cells; 25 ng complex/well of 0.209 A405, an IL-2 ELISA value; DO11.10 T cells; 50 ng complex/well of 1.19 A405 and an IL-2 ELISA value; DO11.10 T cells; 100 ng complex/well of 3.06 A405. The molecule also returned a mean IL-2 absorbance reading of eight DMSO control wells (assay plate 5-2); DO11.10 T cells on 50 ng/well scIA^d/OVA in test [1] of 2.2 A450.
In the case of “single-chain IE^k linked to PCC 88-104 (scIE^k/PCC) (peptide-MHC)”, in test [4], the IL-2 ELISA absorbance; 2B4 T cells; 12.5 ng/well immobilized scIE^k/PCC is 0.054 A450, the IL-2 ELISA absorbance; 2B4 T cells; 25 ng/well immobilized scIE^k/PCC was 0.081 A450, the IL-2 ELISA absorbance; 2B4 T cells; 50 ng/well immobilized scIE^k/PCC turned out to be 0.234 A450 and the IL-2 ELISA absorbance; 2B4 T cells; 100 ng/well immobilized scIE^k/PCC was 0.413 A450. In test [4], the IL-2 ELISA absorbance; 2B4 T cells; 200 ng/well immobilized scIE^k/PCC came out at 0.485 A450 and the IL-2 ELISA absorbance; 2B4 T cells; 400 ng/well immobilized scIE^k/PCC stood at 0.216 A450.

B1: IA^d/OVA complex on OVA peptide-pulsed A20 antigen presenting cells (peptide-MHC, mouse)
MHC II alpha: EDDIEADHVGFYGTTVYQSPGDIGQYTHEFDGDELFYVDLDKKKTVWRLPEFGQLILFEPQGGLQNIAAEKHNLGILTKRSNFTPATNEAPQATVFPKSPVLLGQPNTLICFVDNIFPPVINITWLRNSKSVTDGVYETSFLVNRDHSFHKLSYLTFIPSDDDIYDCKVEHWGLEEPVLKHWEPEIPAPMSELTETVVCALGLSVGLVGIVVGTIFIIQGLRSGGTSRHPGPL
MHC II beta: GNSERHFVVQFKGECYYTNGTQRIRLVTRYIYNREEYVRYDSDVGEYRAVTELGRPDAEYWNSQPEILERTRAEVDTACRHNYEGPETSTSLRRLEQPNVAISLSRTEALNHHNTLVCSVTDFYPAKIKVRWFRNGQEETVGVSSTQLIRNGDWTFQVLVMLEMTPHQGEVYTCHVEHPSLKSPITVEWRAQSESARSKMLSGIGGCVLGVIFLGLGLFIRHRSQKGPRGPPPAGLLQ
peptide: ISQAVHAAHAEINEAGR
In test [5], B1 came in with an IL-2 production of BW/DZ cells with full-length CD4 (BWDZ:CD4+) relative to DO11.10 cells; OVA peptide-mixed A20 APCs of 75 to 80% and an IL-2 production of BW/DZ cells with truncated CD4 lacking the cytoplasmic domain (BWDZ:deltaCM) relative to DO11.10 cells; OVA peptide-mixed A20 APCs of 10%. Also, in test [6], the IL-2 ELISA value; DO11.10 T cells with OVA peptide-loaded A20 cells; 0 µM compound 12G9 was 1.91 A405, the IL-2 ELISA value; DO11.10 T cells with OVA peptide-loaded A20 cells; 0 µM compound 211-C3 worked out at 2.02 A405, the IL-2 ELISA value; DO11.10 T cells with OVA peptide-loaded A20 cells; 0 µM compound 211-C9 worked out at 2.02 A405 and the IL-2 ELISA value; DO11.10 T cells with OVA peptide-loaded A20 cells; 0 µM compound 211B9 is 1.92 A405.

For the origin of these results see patent publication US20040253632A1.
